Measured values as given in patent publication US7579186 (Amgen, dated 2009).

B1: human anti-human TβRII monoclonal antibody TR4D455 (antibody, human IgG4, V domains shown)
VH: EVQLVQSGAEVKKPGESLKISCKGSGYSFTSYWIGWVRQMPGKGLEWMGIIYPGDSDTRYSPSFQGQVTISADKSISTAYLQWSSLKASDTAMYYCARVGGCSGGSCYLWGQGNLVTVSS
VL: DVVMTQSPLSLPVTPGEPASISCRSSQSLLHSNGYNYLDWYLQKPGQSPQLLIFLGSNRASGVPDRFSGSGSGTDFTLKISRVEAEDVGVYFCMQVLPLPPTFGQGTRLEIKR
notes: Human IgG4/kappa purified from hybridoma supernatant; VH gene 5-51 (DP-73), VL gene A19 (DPK-15); The stated signal residues must be removed from the entries; also called Clone TR4D455
B2: commercially available soluble recombinant human TβRII (R&D) (receptor, UniProt P37173 23-159, looked up)
chain: TIPPHVQKSVNNDMIVTDNNGAVKFPQLCKFCDVRFSTCDNQKSCMSNCSITSICEKPQEVCVAVWRKNDENITLETVCHDPKLPYHDFILEDAASPKCIMKEKKKPGETFFMCSCSSDECNDNIIFSEEYNTSNPD
notes: Bought product; also called standard substance
B3: human anti-human TβRII monoclonal antibody TR4C175 (antibody, V domains shown)
VH: EVQLVESGGGLVKPGGSLRLSCAASGFTFSSFSMNWVRQAPGKGLEWVSSISSSSSYIYYTDSVKGRFTISRDNAKNSLYLQMNSLRAEDTAVYYCARGYWGFDYWGQGTLVTVSS
VL: DIQMTQSPSSLSASVGDRVTITCRASQGIRNDLGWYQQKPGKAPKRLIYAASSLQSGVPSRFSGSASGTEFTLTISSLQPEDFATYYCLQHNSNPLTFGGGTKVEIKR
notes: Human IgG4/kappa purified from hybridoma supernatant (transgenic mouse); VH gene 3-21 (DP-77), VL gene A30; The stated signal residues must be removed from the entries; also called Clone TR4C175; TRC175

Key:
[1] = biological target: T1, rat TβRII expressed on the cell surface of rat kidney-derived fibroblast cell line NRK-49F (rat, UniProt P38438 24-567); test: flow cytometry on rat kidney-derived fibroblast cell line NRK-49F, antibody at 5 µg/ml, biotin-labeled anti-human immunoglobulin (Fc) antibody and streptavidin-PE [f]
T1 construct: whole, on cells
T1 sequence (looked up): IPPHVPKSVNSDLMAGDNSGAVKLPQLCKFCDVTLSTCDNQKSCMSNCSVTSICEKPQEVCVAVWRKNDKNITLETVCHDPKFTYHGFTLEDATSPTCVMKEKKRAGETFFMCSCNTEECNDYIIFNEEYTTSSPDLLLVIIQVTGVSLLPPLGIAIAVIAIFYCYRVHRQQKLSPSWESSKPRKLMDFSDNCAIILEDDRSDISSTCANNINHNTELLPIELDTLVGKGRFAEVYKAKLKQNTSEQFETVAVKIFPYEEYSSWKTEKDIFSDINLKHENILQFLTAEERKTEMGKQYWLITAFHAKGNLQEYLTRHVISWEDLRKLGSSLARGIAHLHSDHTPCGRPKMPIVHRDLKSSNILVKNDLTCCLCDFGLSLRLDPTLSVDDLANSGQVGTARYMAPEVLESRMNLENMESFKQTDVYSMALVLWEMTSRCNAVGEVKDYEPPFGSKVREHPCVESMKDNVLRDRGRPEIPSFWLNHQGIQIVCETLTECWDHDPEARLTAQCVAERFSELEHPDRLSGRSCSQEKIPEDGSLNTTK
Description: (§1) Further, similarly, the reactivity against rat TβRII of each of the various human anti-human TβRII monoclonal antibodies was analyzed by cell staining (by flow cytometry) using rat kidney-derived fibroblast cell line NRK-49F (ATCC CRL-1570) expressing rat TβRII on cell surface.
(§2) Each of the human anti-human TβRII monoclonal antibodies of the present invention or commercially available goat anti-human TβRII polyclonal antibody (R&D) (300 μl, 5 μg/ml) (diluted with phosphate buffer containing 0.1% BSA) was added to the respective cells (1 to 2 ×10^4 cells). The mixtures were incubated at 4° C. for one hour, and then centrifuged (at 1,500 rpm for three minutes). The supernatants were discarded, and the cells were washed twice with phosphate buffer. The biotin-labeled anti-human immunoglobulin (Fc) antibody (200 μl; American Qualex International Inc.) was added to the samples containing the human antibodies. The biotin-labeled anti-goat immunoglobulin antibody (200 μl; Amersham Pharmacia) was added to the samples containing the goat antibody. The samples were incubated at 4° C. for one hour.
(§3) Then, each sample was centrifuged (at 1,500 rpm for three minutes), and the supernatant was discarded. […] The samples were fluorescently analyzed with FACStar fluorescence-activated cell sorter (Becton Dickinson) (fluorescence wavelength: a DF585/42 filter, excitation wavelength: 488 nm).

[2] = biological target: T2, purified soluble recombinant human TβRII (extracellular domain of human TGF-β type II receptor, prepared in … (human, UniProt P37173 23-159)); test: SPR (Biacore X), soluble TβRII immobilised on the chip, antibody injected
T2 construct: The range 1-159 is as printed; also called purified human soluble TβRII; purified soluble human TβRII
Description: HBS buffer (containing 0.01 M HEPES, 0.15 M NaCl, 3 mM EDTA, and 0-0.005% Detergent P20, pH 7.0) was injected through a flow cell-1 attached to the kit at a flow rate of 5 μl/min. Then, 35 μl of a solution consisting of 0.005 M NHS (N-hydroxysuccinimide) and 0.2 M EDC (N-ethyl-N'-(dimethylaminopropyl)carbodiimide) was injected to activate the carboxyl groups of the CM coated on the sensor chip.
Then, 70 μl of purified soluble human TβRII (30 μg/ml; dissolved in 10 mM sodium acetate buffer (pH 5.0)) prepared in Example 2 was injected over the chip to be immobilized on the sensor chip.
Phosphate buffer was injected to the flow cell (sensor chip) at a flow rate of 20 μl/minute, and each of the purified human anti-human TGF-β type II receptor monoclonal antibody prepared in the above Example (40 to 100 μg/ml, 60 μl) was added thereto.

[3] = biological target: T3, goat anti-human TβRII polyclonal antibody (R&D); test: sandwich ELISA: goat anti-human TβRII polyclonal antibody coated, soluble TβRII titrated, detection with the biotin-labeled goat anti-human TβRII polyclonal antibody and streptavidin-β-galactosidase (fluorescence)
T3 construct: Polyclonal reagent; also called anti-human soluble TβRII polyclonal antibody (R&D); commercially available anti-human TβRII polyclonal antibody
Description: Establishment of a Quantitative Method with Sandwich ELISA for Human Soluble TβRII <1-1> Establishment of a Sandwich ELISA System to Quantify Soluble Recombinant Human TβRII Goat anti-human TβRII polyclonal antibody (R&D) was diluted with phosphate buffer, and added to each well of a 96-well ELISA microplate (Corning) at a concentration of 0.1 μg/50 μl/well. The plate was incubated at room temperature for one hour to allow adsorption of the polyclonal antibody.
The assay sample was added to each well of the antibody-immobilized microplate (50 μl/well), and the plate was incubated at room temperature for one hour. Then, the microplate was washed three times with phosphate buffer containing 0.1% Tween20. Biotin-labeled goat anti-human TβRII polyclonal antibody (R&D) (diluted with phosphate buffer containing 1% BSA and 0.1% Tween20) was then added to each well at a concentration of 0.025 μg/50 μl/well. The plate was incubated at room temperature for one hour.
A calibration curve was prepared with the sandwich ELISA established in Example <1-1> using commercially available soluble recombinant human TβRII (R&D) as a standard.

[4] = biological target: T1, rat TβRII expressed on the cell surface …; test: flow cytometry on rat kidney-derived fibroblast cell line NRK-49F, antibody at 5 µg/ml, biotin-labeled anti-human immunoglobulin (Fc) antibody and streptavidin-PE [d]
Description: as §1, §2, §3

Row | Binder | binding result [1] | Kd [2] [nM] | koff [2] [s⁻¹] | EC50 (read off the curve) [3] [ng/mL] | binding result [4]
1 | B1 | binds | 3.4 | 0.00012 |  | 
2 | B2 |  |  |  | ~2 | 
3 | B3 |  | 51 | 0.014 |  | binds
